For one test, the target named is T1, human serum albumin (human, UniProt P02768 25-609).
T1 construct: Bought protein (Sigma, 99% pure); also called HSA
Briefly: SPR (BIAcore 3000), HSA on CM5 chip, 2D3-peptide fusion injected. Background: In SPR one partner is held on a chip, and binding of the other changes the refractive index at the surface.

The target of another test is T2, cynomolgus serum albumin (cynomolgus monkey, UniProt A2V9Z4 25-608).
T2 construct: also called cyno serum albumin
The test is described as follows: SPR (BIAcore 3000), 200 nM and 1 uM fusion injected on CM5 chip with ~900 RU cynomolgus serum albumin.

Results on two molecules are retold here after WO2011095545A1 (dated 2011).

In general, Kd refers to the equilibrium constant for the complex coming apart. Low readings indicate a tighter complex, high ones a looser complex.

T2 sequence (A2V9Z4 25-608 limits assumed): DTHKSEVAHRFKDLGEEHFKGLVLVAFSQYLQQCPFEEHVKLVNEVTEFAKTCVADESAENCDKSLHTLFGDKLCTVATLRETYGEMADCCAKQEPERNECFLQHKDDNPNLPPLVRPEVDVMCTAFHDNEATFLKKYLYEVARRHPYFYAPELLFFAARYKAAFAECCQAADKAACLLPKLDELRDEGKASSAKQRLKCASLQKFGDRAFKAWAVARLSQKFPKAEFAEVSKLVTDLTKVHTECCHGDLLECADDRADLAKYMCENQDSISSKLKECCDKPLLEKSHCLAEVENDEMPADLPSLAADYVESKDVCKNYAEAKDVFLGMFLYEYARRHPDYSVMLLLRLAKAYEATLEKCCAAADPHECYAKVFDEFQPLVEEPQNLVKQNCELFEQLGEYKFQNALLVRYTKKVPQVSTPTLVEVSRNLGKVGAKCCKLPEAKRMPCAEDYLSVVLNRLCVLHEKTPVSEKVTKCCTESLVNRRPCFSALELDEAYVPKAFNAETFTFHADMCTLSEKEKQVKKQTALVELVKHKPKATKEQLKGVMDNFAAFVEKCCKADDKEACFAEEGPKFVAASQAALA
T1 sequence (P02768 25-609 limits assumed): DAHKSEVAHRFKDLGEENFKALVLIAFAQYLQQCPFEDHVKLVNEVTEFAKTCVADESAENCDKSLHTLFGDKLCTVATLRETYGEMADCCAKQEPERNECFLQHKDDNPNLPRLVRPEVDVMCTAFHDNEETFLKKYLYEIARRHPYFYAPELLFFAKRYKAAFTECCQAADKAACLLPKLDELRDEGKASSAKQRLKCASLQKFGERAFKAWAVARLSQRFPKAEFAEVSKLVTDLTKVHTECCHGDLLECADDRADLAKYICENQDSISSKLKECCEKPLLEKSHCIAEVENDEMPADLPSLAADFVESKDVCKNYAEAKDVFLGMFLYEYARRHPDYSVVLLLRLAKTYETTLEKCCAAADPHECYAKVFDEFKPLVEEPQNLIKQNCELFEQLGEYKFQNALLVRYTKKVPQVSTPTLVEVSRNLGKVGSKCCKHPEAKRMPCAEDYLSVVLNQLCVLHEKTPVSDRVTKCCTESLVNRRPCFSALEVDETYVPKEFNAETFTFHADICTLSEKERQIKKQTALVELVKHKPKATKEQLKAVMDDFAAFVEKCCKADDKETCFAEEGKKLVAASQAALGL

B1: EXPGMP 80B10 (as a fusion with the Nanobody 2D3) (other)
chain: EVQLVESGGSLVQPGGSLRLSCAASGFTFDDYAMSWVRQVPGKGLEWVSSINWSGTHTDYADSVKGRFTISRNNANNTLYLQMNSLKSEDTAVYYCAKNWRDAGTTWFEKSGSAGQGTQVTVSSGGGGSGGGSYWWERRDWDFDVFGGGTPAAAEQKLISEEDLNGAAHHHHHH
notes: Nanobody-peptide fusion, expressed in E. coli, purified by IMAC/SEC; also called 2D3-9GS-EXP80B10
Take B1: binding with human serum albumin was put at a Kd of 16 nM.

B2: 5F7-9GS-EXP89D03-9GS-EXP89D03 (other)
chain: EVQLVESGGGLVQAGGSLRLSCAASGITFSINTMGWYRQAPGKQRELVALISSIGDTYYADSVKGRFTISRDNAKNTVYLQMNSLKPEDTAVYYCKRFRTAAQGTDYWGQGTQVTVSSGGGGSGGGSWWEQDRDWDFDVFGGGTPGGGGSGGGSWWEQDRDWDFDVFGGGTP
notes: Fusion of Nanobody 5F7 with a tandem repeat of peptide 89D03; also called EXP486
In the case of B2, the binding result with cynomolgus serum albumin is given as “binds”.
